Substitutions are numbered along the chain they refer to. Names may count otherwise.
B1: UPF1-HD_(DE636AA), histidine-tagged (domain or fragment)
chain: RYEDAYQYQNIFGPLVKLEADYDKKLKESQTQDNITVRWDLGLNKKRIAYFTLPKTDSDMRLMQGDEICLRYKGDLAPLWKGIGHVIKVPDNYGDEIAIELRSSVGAPVEVTHNFQVDFVWKSTSFDRMQSALKTFAVDETSVSGYIYHKLLGHEVEDVIIKCQLPKRFTAQGLPDLNHSQVYAVKTVLQRPLSLIQGPPGTGKTVTSATIVYHLARQGNGPVLVCAPSNIAVDQLTEKIHQTGLKVVRLCAKSREAIDSPVSFLALHNQIRNMDSMPELQKLQQLKDETGELSSADEKRYRALKRTAERELLMNADVICCTCVGAGDPRLAKMQFRSILIAASTQATEPECMVPVVLGAKQLILVGDHCQLGPVVMCKKAAKAGLSQSLFERLVVLGIRPIRLQVQYRMHPALSAFPSNIFYEGSLQNGVTAADRVKKGFDFQWPQPDKPMFFYVTQGQEEIASSGTSYLNRTEAANVEKITTKLLKAGAKPDQIGIITPYEGQRSYLVQYMQFSGSLHTKLYQEVEIASVDAFQGREKDFIILSCVRANEHQGIGFLNDPRRLNVALTRARYGVIIVGNPKALSKQPLWNHLLNYYKEQKVLVEGPLNNLRESLMQFS
B2: UPF1-HD_(R843C), histidine-tagged (domain or fragment)
chain: B1 chain with A342D, A343E, R549C
B3: UPF1-HD_(R843S), histidine-tagged (domain or fragment)
chain: B1 chain with A342D, A343E, R549S
B4: UPF1 helicase core domain (UPF1-HD; aa 295-914), C-terminal hexahistidine (domain or fragment)
chain: B1 chain with A342D, A343E

Each binder was assayed against T1, GST-Tax_(CACA) (HTLV-1 Tax with C23 and C29 changed to alanine, N-terminal GST fusion) (HTLV-1, UniProt P03409 1-353, C23A | C29A) (assay: BLI).
Binder B1 has a koff of 0.000283 s⁻¹.
With B2 the koff was 0.000437 s⁻¹.
With B3 the koff was 0.000877 s⁻¹.
B4 gave a koff of 0.00038 s⁻¹.

Biological target: T1, GST-Tax_(CACA) (HTLV-1 Tax with C23 and …)
Assay: BLI
Remark: another data set of the same source
In the case of B1, the Kd is reported as 31.4 nM.
B2 gave a Kd of 53.8 nM.
In the case of B3, the Kd is reported as 66.6 nM.
B4 was tested, and the Kd was 16.6 nM.

Reference: PMC5789848 (2018)
